Measurements as given in paper PMC6616311, “Reconstitution of Microtubule Nucleation In Vitro Reveals Novel Roles for Mzt1” (Current Biology, 2019).

B1: Alp4 (untagged) (natural protein, S. pombe, UniProt Q9Y705 1-784, looked up)
chain: MVRSISSVLAKEESENGSPIPALEEGSVYHVSLKSEGVSPFSDRIQLNYLYDGKTFSDPSNLNIHQQEACLINELLNAFMGMEGVFVHLQDMKASSEFETIIMPPSFYILPGFDLGIKDIASEMLEMGSHYLSITAFIESRSHFEYGFVNHALCAALRKFVMDYVVLIMQCENQSRIDPNFSLQTLRLYTLPTSRSLRQVYLILRDLLLSMEKNASSSDDLGLSNIDDLLEQLNEGNDISHVVNATRSKKKVCKGGQVISFLTESLTKYAGDPVARKILTYLLREASRPYTKMLNEWIHLGLVNDPYDEFMIKIHKGITSMQLDEDYTDEYWEKRYVIREDQVPPQLLDLQNKVLFAGKYLNVVLECRKGVNNLASLNAKDDTQNQLLWPSTFDDDNFTLNIMNAYVYANESLLQLLQSSQSLYAHLYSLKHYFFLDQSDFFTTFLDNAQHELRKPAKYISITKLQSQLDLALRQPGTITATDPHKEYVTVEVNQTSLIDWLMHIVSISGLEEGTSSQGNEVWNESITKQADVGNETRNFESEHNRSTQGTSKVGSDKDINGFETMQLCYKVPFPLSLILSRKAIIRYQLLFRYFLLLRHVEMQLENSWVQHSKNSAWRLNSSNAKIEQWKRNSWLLRTRMLSFVQKIIYYTTSEVIETHWGKFMGELENARTVDNLMQEHIDFLDTCLKECMLTNSRLLKVQSKLLNTCAMFASYTSTFTRSLYLLENSEESFDEGRMDKMEEILRRYEDSFSRHLKSLVNACNYFASTETAALLSLVMKLTG
notes: Alp4, S. pombe γ-TuSC protein, homolog of human GCP2; also called homolog of human GCP2; source: High Five insect cells (MultiBac baculovirus), coexpressed with partners; in lysate, and co-purified in complexes
B2: 6xHis-Mto1[bonsai] (domain or fragment, S. pombe, UniProt O94488 131-549, looked up)
chain: TTDDEQLSPVLTANQGFQSQEQYEEDSYNNYDYTSDPSSPNYISSSLDQLPHLDDEDDLQLTPIKEERNYLHSQDAPTTNALSKKISDILIPASAMKDLKDRKNALAKEFEESQPGSSLTLKEQANVIDNLRKEVFGLKLKCYFLYDQLNKFHDQEVQDIMKQNIDLKTLTMELQRAVAGYEKKISGLESRIKPDQSFNLSTPSPAPSNLITLQSRYSQALSELETTKRAFAALRKEKSKKTNYSVGAYNEDRNVLSNMLDNERREKEALLQELESLRVQLSKKVPMPAKNTDERVIETLQRSNELLRMDISMQNEALLLRKQENDRLVKQVEELTVALNSGKMNAIVEAESSKNELWDSMMVSRMKTQEQSIELTRLYKQLQDIEEDYENKLMRMEQQWREDVDQLQEYVEEITQELQ
notes: Mto1 of S. pombe (CM1-domain protein), amino acids 131-549; lacks residues 1-130 and 550-1,115; also called Mto1(131-549); source: High Five insect cells (MultiBac baculovirus), coexpressed with Mto2; in lysate, and co-purified in complexes; not shown: 6xHis, N-terminal, kept
B3: γ-tubulin (Gtb1), untagged (natural protein, S. pombe, UniProt P25295 1-446, looked up)
chain: MGREIITLQAGQCGNQIGSQFWQQLCLEHGIGPDGTLESFATEGVDRKDVFFYQSDDTRYIPRAILIDLEPRVVNNILSDTYGSLYNPENILITKNGGGAGNNWANGYSHAERIFEDIMDMIDREADGSDSLEGFSLLHSIAGGTGSGLGSFLLERLNDRYPKKIIQTYSVFPNSQSVSDVVVQPYNSLLALKRLTLNADSVVVLDNAALAHIAADRLHTQNPTFHQQNQLVSTVMSASTTTLRYPGYMNNDLVSIIASLIPSPRCHFLLTSYTPFTNQQVEEAKAIRKTTVLDVMRRLLLPKNQMVSVNPSKKSCFISILDIIQGEADPADVHKSLLRIRERRYASFIPWGPASIQVALSKKSPYIKTNHRVSGLMLANHTSIASLFKRTLDQYDRLRKRNAFLEQYKKEAIFEDDLNEFDSSRDVVADLINEYEACEDPNYLSL
notes: γ-tubulin Gtb1 of S. pombe; source: High Five insect cells (MultiBac baculovirus), coexpressed with partners; in lysate, and co-purified in complexes
B4: Mzt1-6xHis (natural protein, S. pombe, UniProt P0CF96 1-64, looked up)
chain: MSESTKETIEVLYEIGTLLGTELDKTTLSLCISLCENNVHPEAIAQIIREIRMAQEQTVDTEPS
notes: Mzt1 of S. pombe; also called MOZART1 homolog; source: High Five insect cells (MultiBac baculovirus); coexpressed in lysate, co-purified in complexes, or purified alone (Ni2+ IMAC, Superdex 75); not shown: 6xHis, C-terminal, kept
B5: Mto1/2[bonsai] complex (complex, S. pombe)
chain 1: B2 chain
chain 2: MSEHNYQSDREVAEDPFLNYEASANQLSSNSRESTPRGSPWRAGMRSASLMTEPLEDSMYSDNNYLDNGVSFTKDENPLYSPSWPSLADANVNSMKSNNAIQEHKAAKFVSEKSLEKVSTADNNLVLQELENLRERLNQVELQLSERPSSYLGYHNNLSPYRSPNSYPSLLPSTHSPHSPAPLSTMQTALMRLRTYHPSPIILKPVEQAVNHAITLVNTSPSSVVDALCRSLAELCLGLVQEAIDASILSQQESSNSLDLVRHTPPLNYTSSVDSSPQRMASDSYGRPSLHLNDPFPSVDLQSNELSHHNVRTTLFSDDSRFHSKIHTHSTPPSQMYSAASHFRYRSDPSTRHVSNSTNKSSLHPSPTSLRVAHPIIPQRASPASQSFPSLQDTPSP
notes: Mto1 of S. pombe, amino acids 131-549 (Mto1[bonsai]); as m7; Mto2 of S. pombe; as m8; Copy numbers of the two chains in the complex are not measured here; also called 6xHis-Mto1/2[bonsai]; source: High Five insect cells (MultiBac baculovirus); coexpressed in lysate, or purified (ammonium sulfate, Ni2+ Fractogel, Superose 6); not shown: 6xHis, N-terminal, kept

How the values were obtained:
Alp6-MBP [1] = biological target: T1, Alp6-MBP (S. pombe, UniProt Q9USQ2 1-832); test: pull-down; amylose resin purification via Alp6-MBP from lysates of High Five cells coexpressing Alp6-MBP, Alp4 and Gtb1, with or without Mzt1-6xHis; HB100 buffer (40 mM K-HEPES, 100 mM KCl, 1 mM EGTA, 1 mM MgCl2, 0.1 mM GTP, 1 mM DTT pH 7.5), overnight 4°C, maltose elution, SDS-PAGE; conditions: partners not purified
T1 construct: Alp6, S. pombe γ-TuSC protein, homolog of human GCP3; also called Alp6 (homolog of human GCP3) with C-terminal MBP-6xHis tag; tagged subunit of γ-TuSC^Alp6-MBP; source: High Five insect cells (MultiBac baculovirus), coexpressed with partners; in lysate, and purified on amylose; not shown: MBP, C-terminal, kept; 6xHis, C-terminal, kept
T1 sequence (looked up): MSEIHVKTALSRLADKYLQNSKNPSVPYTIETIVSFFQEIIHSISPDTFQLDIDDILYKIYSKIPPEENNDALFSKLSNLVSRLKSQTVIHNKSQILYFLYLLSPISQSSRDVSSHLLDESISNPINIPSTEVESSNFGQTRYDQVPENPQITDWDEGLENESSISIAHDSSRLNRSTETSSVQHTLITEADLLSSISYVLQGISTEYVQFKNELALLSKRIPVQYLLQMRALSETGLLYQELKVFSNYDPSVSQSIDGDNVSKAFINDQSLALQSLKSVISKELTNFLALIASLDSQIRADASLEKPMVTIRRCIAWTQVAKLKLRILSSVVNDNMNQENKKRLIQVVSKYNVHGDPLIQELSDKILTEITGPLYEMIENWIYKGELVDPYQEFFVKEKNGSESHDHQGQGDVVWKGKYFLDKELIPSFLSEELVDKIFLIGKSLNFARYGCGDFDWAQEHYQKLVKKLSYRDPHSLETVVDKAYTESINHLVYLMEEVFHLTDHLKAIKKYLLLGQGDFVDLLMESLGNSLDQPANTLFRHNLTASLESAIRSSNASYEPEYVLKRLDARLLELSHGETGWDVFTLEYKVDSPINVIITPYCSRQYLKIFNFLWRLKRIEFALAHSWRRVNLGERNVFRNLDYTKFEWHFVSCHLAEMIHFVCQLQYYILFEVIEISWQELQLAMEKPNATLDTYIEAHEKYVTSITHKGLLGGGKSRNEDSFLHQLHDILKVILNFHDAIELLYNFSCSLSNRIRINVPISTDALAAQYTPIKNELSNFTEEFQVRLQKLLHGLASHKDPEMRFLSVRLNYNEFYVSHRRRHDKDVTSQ

Alp6-MBP [2] = biological target: T1, Alp6-MBP; test: cross-linking; cross-linking mass spectrometry of purified MGM holocomplex (from coexpression) with EDC/Sulfo-NHS, 1:2:4.4 (w/w/w), 90 min, 18°C, 40 mM K-HEPES, 300 mM NaCl, 1 mM MgCl2 pH 7.5; conditions: both partners purified
Alp4 (untagged) = biological target: B1; test: as above; conditions: both partners purified
[3] = biological target: the molecule itself; test: SEC-MALS; 100 μL of 1.98 mg/mL Mzt1 on Superdex-75 10/300 GL in 100 mM Tris, 50 mM NaCl, pH 7.5, 22°C
[4] = biological target: the molecule itself; test: glycerol density-gradient centrifugation; 10-30% glycerol density gradient in HB100, 55,000 rpm, 4°C, 45 or 80 min; one affinity-purified complex alone, 100 μL at 1 mg/mL; S values against marker proteins

Binder: B1
- binding result (Alp6-MBP [1]): binds

Binder: B2
- binding result (Alp6-MBP [2]): binds
- binding result (Alp4 (untagged)): binds

Binder: B3
- binding result (Alp6-MBP [1]): binds

Binder: B4
- stoichiometry N [3]: 2

Binder: B5
- binding result [4]: binds
